Data from article PMC4992421 (Nature immunology, 2016).

Key:
Experiment in all cases: SPR
KIR3DS1-Fc = KIR3DS1-Fc (human, UniProt Q14943)
KIR3DL2-Fc = KIR3DL2-Fc (human, UniProt P43630)
KIR3DL1-Fc = KIR3DL1-Fc (human, UniProt P43629)
Sequence of KIR3DL1-Fc (P43629 22-340): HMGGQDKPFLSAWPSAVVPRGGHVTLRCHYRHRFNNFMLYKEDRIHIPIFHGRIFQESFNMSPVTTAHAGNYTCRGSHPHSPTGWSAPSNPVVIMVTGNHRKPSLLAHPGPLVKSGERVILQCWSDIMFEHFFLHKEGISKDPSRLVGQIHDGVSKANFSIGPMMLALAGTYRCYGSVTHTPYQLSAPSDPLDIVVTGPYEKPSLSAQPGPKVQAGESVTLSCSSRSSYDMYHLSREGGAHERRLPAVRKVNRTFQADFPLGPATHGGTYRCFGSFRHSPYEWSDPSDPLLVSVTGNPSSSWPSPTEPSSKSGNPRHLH

Sequence of KIR3DL2-Fc (P43630 22-340): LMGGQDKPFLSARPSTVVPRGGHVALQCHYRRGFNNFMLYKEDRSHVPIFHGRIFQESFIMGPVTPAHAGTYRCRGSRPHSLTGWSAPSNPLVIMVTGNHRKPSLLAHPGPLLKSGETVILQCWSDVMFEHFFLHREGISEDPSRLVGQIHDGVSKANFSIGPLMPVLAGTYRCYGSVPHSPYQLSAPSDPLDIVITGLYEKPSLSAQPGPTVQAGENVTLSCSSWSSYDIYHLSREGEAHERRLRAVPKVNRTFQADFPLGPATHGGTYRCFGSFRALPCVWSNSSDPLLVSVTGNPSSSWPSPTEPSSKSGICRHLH
Sequence of KIR3DS1-Fc (Q14943 22-340): as the sequence (P43629 22-340) above, with I47V, S58G, V92M, K136R, G138W, P163S, L166R, P199L, P315L counted along it

B1: HLA-F open conformer (natural protein)
MHC heavy: GSHSLRYFSTAVSRPGRGEPRYIAVEYVDDTQFLRFDSDAAIPRMEPREPWVEQEGPQYWEWTTGYAKANAQTDRVALRNLLRRYNQSEAGSHTLQGMNGCDMGPDGRLLRGYHQHAYDGKDYISLNEDLRSWTAADTVAQITQRFYEAEEYAEEFRTYLEGECLELLRRYLENGKETLQRADPPKAHVAHHPISDHEATLRCWALGFYPAEITLTWQRDGEEQTQDTELVETRPAGDGTFQKWAAVVVPPGEEQRYTCHVQHEGLPQPLILRWEQSPQPTIPI
modifications: biotin (biotinylated monomer, site not stated)
Kd (KIR3DS1-Fc): 0.025 µM | koff (KIR3DS1-Fc): 0.0007 s⁻¹ | kon (KIR3DS1-Fc): 28400 M⁻¹ s⁻¹ | Kd (KIR3DL2-Fc): 0.118 µM | koff (KIR3DL2-Fc): 0.00508 s⁻¹ | kon (KIR3DL2-Fc): 43000 M⁻¹ s⁻¹ | Kd (KIR3DL1-Fc): 0.157 µM | koff (KIR3DL1-Fc): 0.00691 s⁻¹ | kon (KIR3DL1-Fc): 44000 M⁻¹ s⁻¹
